Measurements: patent US20030166587A1
Non-standard residues stand in square brackets, D forms with d. No end group written: not given here. pS = N[C@@H](COP(=O)(O)O)C(=O)O

Biological target: specific IκB E3 ubiquitin ligase activity of HeLa extract
Test: cell-based or functional assay

Row | Binder | IC50 of inhibition of pIκBα ubiquitination (in vitro ubiquitination assay in HeLa extract) [µM] | TNFα-stimulated NF-κB activation (nuclear p65 staining) abolished, percent of microinjected HeLa cells [%] | inhibition of E-selectin expression, percent of microinjected HUVEC [%]
1 | CERLLDDRHD[pS]GLD[pS]MKDEE [pp19, doubly phosphorylated IκBα peptide] | 5 |  | 
2 | CKKERLLDDRHD[pS]GLD[pS]MKDEE [pp21, doubly phosphorylated IκBα peptide] | 5 | 50 to 70 | 70 to 80
